Measurements: the nanobody polyreactivity screen of Harvey et al. (2022)

Test: yeast display, Sf9 membrane polyspecificity reagent, FACS + sequencing; frameworks hold sequencing errors
How it was run: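 Nanobodies came from a synthetic yeast display library in Saccharomyces cerevisiae BJ5465, induced with galactose for 36–48 hours and stained for 1 hour at 4 °C with 10% biotinylated, detergent-solubilized Sf9 membrane reagent. Cells were enriched on streptavidin microbeads and then FACS-sorted, with low and high (top ~1%) gates set on anti-HA fluorescence for expression and streptavidin fluorescence for reagent binding. Each polyreactivity label reflects the gate a clone came from. Genes were amplified by colony PCR, sequenced by MiSeq 2 × 250 and filtered by CDR length.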

Sequence | polyreactivity (PSR sort gate)
QVQLVESGGGLVQAGGSLRLSCAASGSTLVGNTMGWYRQAPGKERELVAAITGVGSRNYADSVKGRFTISRDNAKNTVYLQMNSLKPEDTALYYCAAETWYSVLWEEGYDYWGHGTQVTVSS | low polyreactivity
QVQLVESGGGLVQAGGSLRLSCAASGSTLVIYAMGWYRQAPGKERELVAAINFSDGSTSYADSVKGRFTISRDNAKNTVYLQMNSLKPEDTAVYYWGQGTQVTVSS | low polyreactivity
QVQLVESGGGLVQAGGSLRLSCAASGSTLVIYAMGWYRQAPVKEREFVAAIRCSPGRTYYADSVKGRFTISRDNAKNSVYLQMNSLKPEDTAVYYCAVEYQSWKGWWFDYWGQGTQLTVSS | high polyreactivity
QVQLVESGGGLVQAGGSLRLSCAASGSTLVKYAMGWYRQAPGKERELVAAISWSGGRTYYADSVKGRFTISRDNAKNTVYLQMNSLKPEDTAVYYCAARSTRFYTPGYYYWGQGTQVTVSS | high polyreactivity
QVQLVESGGGLVQAGGSLRLSCAASGSTLVSNAMGWYRQAPGKERELVASISYSATSTYYADSVKGRFTISRDNAKNTVYLQMNSLKPEDTAVYYCAAKTFRSRYYYWGQGTQVTVSS | high polyreactivity
QVQLVESGGGLVQAGGSLRLSCAASGSTLVTYAMGWYRQAPGKERELVAGISSGGSTNYADSVKGRFTISRDNAKNTVYLQMNSLKPEDTAVYYCAAQGSLTWWAATFIYDYWGQGTQVTVSS | low polyreactivity
QVQLVESGGGLVQAGGSLRLSCAASGSTLVYNAMGWYRQAPGKERELVAAISRSGGITYYADSVKGRFTISRDNAKNTVYLQMNSLKPEDTAVYYCNAVVRTRYRPGYDYDYWGQGTQVTVSS | high polyreactivity
QVQLVESGGGLVQAGGSLRLSCAASGSTLVYNDMGWYRQAPGKEREFVAAIRSNDGSTYYADSVKGRFTISRDNAKNTVYLQMNSLKPEDTAVYYCNKDVWDGYDWPEFDYWGQGTQVTVSS | low polyreactivity
QVQLVESGGGLVQAGGSLRLSCAASGSTLWAYAMGWYRQAPGKERELVASISSGGNTNYADSVKGRFTISRDNAKNTVYLQMNSLKPEDTAVYYCAAVGYLYFWYPYDYWGQGTQLTVSS | low polyreactivity
QVQLVESGGGLVQAGGSLRLSCAASGSTLWYNARGWYRDAPGKERELVAAITTSTDSTYYADSVKGRFTISRYNAKNTVYLQMNSLKPEDTAVYYCAAVLHLNGGGKAYDYWGLGTQVTVSS | low polyreactivity
QVQLVESGGGLVQAGGSLRLSCAASGSTLYGYVMGWYRQAPGKERELVADITWSGGSTYYADSVKGRFIISRDNAKNTVYLQMNSLKPEDTAVYYCNADRYGIYYYSRLPFDYWGQGTQVTVSS | low polyreactivity
QVQLVESGGGLVQAGGSLRLSCAASGSTLYHNAMGWYRQAPGKERELVAAITRGGSTYYADSVKGRFTISRDNAKNTVYLQMNILKPEDTAVYYCAVAVLVYYGKYYPYKMYYWGQGTQVTVSS | high polyreactivity
QVQLVESGGGLVQAGGSLRLSCAASGSTLYLNAMGWYRQAPGKERELDASISNGVNTNYADSVKGRFTISRDNAKNTVYLLMNSLKPEDTAVYYCAKEKRFQKTVHRKPAYDYWGQGTQVTVSS | low polyreactivity
QVQLVESGGGLVQAGGSLRLSCAASGSTLYPYAMGWYRQAPGKEWELVAVITLRGGSTYYADSVKGRFTISRDNAKNSVSVQMKSLKPEDTAVYYCAADPRKVHSDDYDYWGQGTQVNVSS | high polyreactivity
QVQLVESGGGLVQAGGSLRLSCAASGSTLYPYDMGWYRPAPGKERELVAAIDSGGSTNYADSVKGRFTISRDNAKNTVYLQMNSLKPEDTAVYYCATEILTSARDTVVYQFYLGYYYWGQGTQVTVSS | low polyreactivity
QVQLVESGGGLVQAGGSLRLSCAASGSTLYRYAMGWYRQAPGKERELVAAITRGSGSTYYADSVKGRFTISRDNAKNTVYLQMNSLKPEDTAVYYCATVKRNHLDGFEYWGQGTQVTVSS | high polyreactivity
QVQLVESGGGLVQAGGSLRLSCAASGSTLYSYAMGWSRQAPGKEREFVAAITSDDGSTYYADSVKGRFTISRDNAKNTVYLQMNSLKPEDTAVYYCATAGSVEYNYWGQGTQVTVSS | low polyreactivity
QVQLVESGGGLVQAGGSLRLSCAASGSTLYVNAMGCYIQAPGKERELVAAISSGGGRTYYADSVKGRFTISRDNAKNTVYLQMNSLKPEETAVYYCARKPYYPYDYWGQGTLVTVSS | low polyreactivity
QVQLVESGGGLVQAGGSLRLSCAASGSTLYWNAMGWYRQAPGKDRELVATINTNGGSTYYADSVKGRFTISRDNAKNTVYLQMNSLKPEDTAVYYCAAQVRQWGYFRYYYWGQGTQVTVSS | high polyreactivity
QVQLVESGGGLVQAGGSLRLSCAASGSTQNVYAMGWYRQATGKERELVAAIRWSGDTYYADSVKGRFTISRDNAKNTVYLQMNSLKPEDTAVYYCAAVPGTTYWQRFDYWGQGTQVTVSS | low polyreactivity
QVQLVESGGGLVQAGGSLRLSCAASGSTQYWNAMGWYRQAPGKERELVAAISRSGGSTYYADSVKGRFTISRDNAKNTVYLQINSLKPEDTAVYYCAARRYVPHTEYYYWGQGTQVTVSS | low polyreactivity
QVQLVESGGGLVQAGGSLRLSCAASGSTRFWKDMGWYRQAPWKERELVAVISFSGVSTYYADSVKGRFTISRDNAKNTVYIQMNRLKPEDTAVYYCAIEDGYSQLKTTFDEPGYGSWGQGTQVNVSS | low polyreactivity

Sequence | polyreactivity (PSR sort gate)
QVQLVESGGGLVQAGGSLRLSCAASGSTRRDYVMGWYRQAPGKERELVAAITSRVDDTYYADSVKGRFTISRDNAKNTVYLQLNSLKPEDTAVYYCAADYSVTLRIGGYYWFYAFDYWGQGTQLTVSS | low polyreactivity
QVQLVESGGGLVQAGGSLRLSCAASGSTRYYAMGWYRQAPGKERELVATISSRSRTYYADSVKGRFTISRDNAKNTVYLQMNSLKPDDPAVYYCAARRRRFYYQYYRYDYWGQGTQVTVSS | high polyreactivity
QVQLVESGGGLVQAGGSLRLSCAASGSTSAYYVMGWYRQAPGKERELVAAIDFSGDSTYYADSVKGRFTISRDNAKNTVYLQMNSLKPEDTAVYYCAAELFNYSSLVSYEYWGQGTQVTVSS | high polyreactivity
QVQLVESGGGLVQAGGSLRLSCAASGSTSRKYTMGWYRQAPGKERELVATISWSGGSTNYADSVKGRFTISRDNAKNTVYLQMNSLKPEDTAVYYCNAYVSPRYRGSRYYYWGQGTQVTVSS | high polyreactivity
QVQLVESGGGLVQAGGSLRLSCAASGSTSRYNAMGWYRQAPGKERELVARINSGGTTNYADSVKGRFTISRDNAKNTVYLQMNSLKPEDTAVYYCNAYYYFWGQGTQVTVSS | low polyreactivity
QVQLVESGGGLVQAGGSLRLSCAASGSTSRYYDMGWYRQAPGTERELVAAITWSGGTTYYADSVKGRFTISRDNAKNTVYLQMNSLKPEDTAVYYCAASRRGGLYTRYHYWGQGTQVTVSS | low polyreactivity
QVQLVESGGGLVQAGGSLRLSCAASGSTSSLNAMGWYRQAPGKEREFVATISFGGGRTYYADSVKGRFTISRDNAKNTVYLQMNSLKPEDTAVYYCAAVGSRWFSQTWRDYWGQGTQVTVSS | high polyreactivity
QVQLVESGGGLVQAGGSLRLSCAASGSTSSVMLWMGWYRQAPGKEREFVAGISWIDATTYYADSVKGRFTISRDNAKNTVYLQMNSLKPEDTAVYYCAADVRWLWYWYGRYDYWGQGTQVTVSS | high polyreactivity
QVQLVESGGGLVQAGGSLRLSCAASGSTSTYNAMGWYRQAPGTERELVAAITESGGSTYYADSVKGRFTISRDNAKNTVYLQMNSLKPEDTAVYYCAADQTYTYDYWGQGTQVTVSS | low polyreactivity
QVQLVESGGGLVQAGGSLRLSCAASGSTSVDYTMGWYRQAPGKESELVAAIDYNGDSTYYADSVKGRFTISRDNAKITVYLQMNRLKPEDTAVYYCAADVWTLDPDEYDYWGQGTQVTLSS | low polyreactivity
QVQLVESGGGLVQAGGSLRLSCAASGSTSVGNAMGWYRQAPGKERELVAAISRIGGTTYYADSVKGRFTISRDNAKNTVYLQMNSLKPEDTAVYYCNVLKRYWSGRVDYWGQGTQVTVSS | high polyreactivity
QVQLVESGGGLVQAGGSLRLSCAASGSTSVYYAMGWYRQTPGKERELVAAITWDDGSTSYADSVKGRFTISRDNAKNTVYLQMNSLKPEDTAVYYCAKDYEYLGAFNYWGQGTQVTVSS | low polyreactivity
QVQLVESGGGLVQAGGSLRLSCAASGSTSWYNAMGWYRQAPGKESELVAAISKSGTSTHYADSVKGRFTISRDNAKNTVYIQMNSRKPEDTAVYYCNRVRYALRRFYGTAVGYWGQGTQVTVSS | low polyreactivity
QVQLVESGGGLVQAGGSLRLSCAASGSTSYTNAMGWYRQAPGKERELVAGITRSGDSTYYADSVKGRFTISRDNAKNTVYLQMNSLKPEDTAVYYCAAEYSGQYYSPVSYLYDYWGQGTQVTVSS | high polyreactivity
QVQLVESGGGLVQAGGSLRLSCAASGSTSYVYAMGWYRQAPGKEREFVAAIRSSGGDTYYADSVKGRFTISRDNAKNTVYLQMNRLKPEDSAVYYCNDRYATAVARFGYWGQGTQVTVSS | high polyreactivity
QVQLVESGGGLVQAGGSLRLSCAASGSTTSVNAMGWYTQAPGKEREFVATISFGGGRTYYADSVKGRFTISRDNAKNTVYLQRNSRKPEDTAVYYCAAVGSRWFSQTWRDYWGQGTQVTVSS | high polyreactivity
QVQLVESGGGLVQAGGSLRLSCAASGSTTYAMGWYRQAPVKERELVAGITFSGGSTNYADSVKGRFTISRDNAKNTVYLQMNSLKPEDTAVYYCAAKLWHHSYRYDYWGQGTQVTVSS | low polyreactivity
QVQLVESGGGLVQAGGSLRLSCAASGSTVAYYAMGWYRQAPGKERELVAAITWNGGRTFYADSVKGRFTISRDNAKNTVYLQMNSLKPEDTAVYYCAAATYQSRYFQRFDYWGQGTQVTVSS | high polyreactivity
QVQLVESGGGLVQAGGSLRLSCAASGSTVDANAMGWYRPAPGKERELVATISDGGSTNYADSVKGRFTISRDNAKKTVYVQKNSLKPEDTAVYYCAAVKLFLGLGYDYWGQGTQVTVSS | low polyreactivity
QVQLVESGGGLVQAGGSLRLSCAASGSTVHYMGWYRPAPGKERELVAGISWSGGSTYYADSVKGRFTISRDNAKNTVYLQMTSLKPEDTAVYYCAADIKIRLYTTGDYWGQGTQVTVSS | low polyreactivity
QVQLVESGGGLVQAGGSLRLSCAASGSTVYLNAMGWYRQAPGKDRELVAAITRIGGSTYYADSVKGRFTISRDNAKNTVYLQMNSLKPEDTAVYYCAKDYGPARHDRYGYWGLGTQVTVSS | low polyreactivity
